Assay results as given in doi:10.1101/2023.08.10.552762.
One block for each molecule: values may come before it.

Columns and labels:
[1] = target: Escherichia coli SduA (Shedu system, E. coli KTE10) (Escherichia coli KTE10); assay: SEC-MALS
EcSduA (Shedu SduA) [2] = target: T1, EcSduA (Shedu SduA) (Escherichia coli, UniProt PDB:8PS5_1 1-411); assay: cryo-EM structure
T1 sequence: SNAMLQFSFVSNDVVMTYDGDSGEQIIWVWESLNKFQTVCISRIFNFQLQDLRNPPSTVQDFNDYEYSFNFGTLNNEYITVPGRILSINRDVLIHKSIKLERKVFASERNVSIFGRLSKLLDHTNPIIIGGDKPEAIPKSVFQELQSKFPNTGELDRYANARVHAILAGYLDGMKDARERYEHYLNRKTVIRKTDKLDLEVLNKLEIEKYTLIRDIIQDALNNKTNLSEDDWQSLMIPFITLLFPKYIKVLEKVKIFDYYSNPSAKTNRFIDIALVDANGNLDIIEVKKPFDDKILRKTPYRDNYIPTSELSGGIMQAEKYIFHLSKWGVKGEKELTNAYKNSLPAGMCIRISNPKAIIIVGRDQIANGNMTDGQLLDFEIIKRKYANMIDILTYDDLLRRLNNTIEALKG

EcSduA (Shedu SduA) [3] = target: T1, EcSduA (Shedu SduA); assay: fluorescence polarization

stoichiometry N [1]: 4
Molecule: Escherichia coli SduA (Shedu system, E. coli KTE10) (enzyme)

B1: 40 bp palindromic dsDNA oLL314 (dsDNA)
DNA 1: CTAGTGCATCTGAATCGTCATGACGATTCAGATGCACTAG
DNA 2: CTAGTGCATCTGAATCGTCATGACGATTCAGATGCACTAG
binding result (EcSduA (Shedu SduA) [2]): binds

B2: 40 bp dsDNA oLL321/oLL322 (dsDNA)
DNA 1: GATACCAGCTCTATGTTGACCTCTCAGATCGGCACTACTT
DNA 2: AAGTAGTGCCGATCTGAGAGGTCAACATAGAGCTGGTATC
Kd (EcSduA (Shedu SduA) [3]): 11.9 ± 0.4 nM
